Experimental data from patent US20150165025A1 (ONO PHARMACEUTICAL, published 2015).

T1: ICOS fusion protein (R&D Biosystems) (human, UniProt Q9Y6W8 21-141)
T1 sequence (looked up): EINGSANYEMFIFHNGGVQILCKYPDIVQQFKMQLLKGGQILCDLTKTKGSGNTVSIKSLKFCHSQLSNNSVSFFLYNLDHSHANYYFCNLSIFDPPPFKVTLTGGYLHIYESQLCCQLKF

T2: CTLA-4 fusion protein (R&D Biosystems) (human, UniProt P16410 37-162)
T2 sequence (looked up): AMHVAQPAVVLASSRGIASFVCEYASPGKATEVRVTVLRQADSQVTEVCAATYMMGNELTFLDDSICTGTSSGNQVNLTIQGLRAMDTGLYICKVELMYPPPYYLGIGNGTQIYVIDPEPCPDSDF


How the values were obtained:
[1] = molecular target: T3, purified recombinant human PD-1 fusion protein (human, UniProt Q15116 25-170); assay: Biacore SPR; PD-1 fusion protein on CM5 chip, antibody at 267 nM
T3 construct: extracellular domain; Made in CHO cells; amine-coupled to a CM5 chip for Biacore
Experimental: Anti-PD-1 antibodies were characterized for affinities and binding kinetics by Biacore analysis (Biacore AB, Uppsala, Sweden). Purified recombinant human PD-1 fusion protein was covalently linked to a CM5 chip (carboxy methyl dextran coated chip) via primary amines, using standard amine coupling chemistry and kit provided by Biacore. Binding was measured by flowing the antibodies in HBS EP buffer (provided by Biacore AB) at a concentration of 267 nM at a low rate of 50 μl/min. The antigen-antibody association kinetics was followed for 3 minutes and the dissociation kinetics was followed for 7 minutes. The association and dissociation curves were fit to a 1:1 Langmuir binding model using BIAevaluation software (Biacore AB). To minimize the effects of avidity in the estimation of the binding constants, only the initial segment of data corresponding to association and dissociation phases were used for fitting.

[2] = molecular target: T4, CD28 fusion protein (R&D Biosystems) (human, UniProt P10747 19-152); assay: ELISA on CD28 fusion protein, goat anti-human IgG (kappa) HRP
Experimental: (§1) A comparison of the binding of anti-PD-1 antibodies to CD28 family members was performed by standard ELISA using four different CD28 family members to examine the specificity of binding for PD-1.
(§2) Standard ELISA procedures were performed. The anti-PD-1 human monoclonal antibodies were added at a concentration of 20 μg/ml. Goat-anti-human IgG (kappa chain-specific) polyclonal antibody conjugated with horseradish peroxidase (HRP) was used as secondary antibody.

[3] = molecular target: T1, ICOS fusion protein (R&D Biosystems); assay: ELISA on ICOS fusion protein, goat anti-human IgG (kappa) HRP
Experimental: as §1, §2

[4] = molecular target: T2, CTLA-4 fusion protein (R&D Biosystems); assay: ELISA on CTLA-4 fusion protein, goat anti-human IgG (kappa) HRP
Experimental: as §1, §2

[5] = molecular target: T5, human PD-1 expressed at the cell surface (human, UniProt Q15116 25-288); assay: flow cytometry on activated human T cells, FITC-labeled anti-human IgG, MFI
T5 construct: whole, on cells; also called hPD-1; CHO hPD-1 cells
Experimental: (§3) Activated human T-cells, monkey peripheral blood mononuclear cells (PBMC), and CHO cells transfected with PD-1 were each tested for antibody binding. Human T cells and cynomolgous PBMC were activated by […] to induce PD-1 expression on T cells prior to binding with a human anti-PD-1 monoclonal antibody. […] The cells were washed and binding was detected with a FITC-labeled anti-human IgG Ab. Flow cytometric analyses were performed using a FACScan flow cytometry (Becton Dickinson, San Jose, Calif.).

[6] = molecular target: T6, cynomolgus monkey cell surface PD-1 (cynomolgus monkey, UniProt B0LAJ3 25-288); assay: flow cytometry on activated cynomolgus monkey PBMC, FITC-labeled anti-human IgG, MFI
T6 construct: also called cynomolgous monkey PD-1
Experimental: as §3

[7] = molecular target: T5, human PD-1 expressed at the cell surface; assay: flow cytometry on CHO cells transfected with human PD-1, FITC-labeled anti-human IgG, MFI
Experimental: as §3

[8] = molecular target: T5, human PD-1 expressed at the cell surface; assay: flow cytometry blocking assay on CHO/hPD-1 cells: antibody first, then FITC-labeled PD-L1 fusion protein as the blocked ligand, MFI
Experimental: (§4) PD-1 expressing CHO cells were suspended in FACS buffer (PBS with 4% fetal calf serum). […] Flow cytometric analyses were performed using a FACScan flowcytometer (Becton Dickinson, San Jose, Calif.).

[9] = molecular target: T1, ICOS fusion protein (R&D Biosystems); assay: standard ELISA on fusion proteins
Experimental: as §1, §2

[10] = molecular target: T2, CTLA-4 fusion protein (R&D Biosystems); assay: standard ELISA on fusion proteins
Experimental: as §1, §2

[11] = molecular target: T4, CD28 fusion protein (R&D Biosystems); assay: standard ELISA on fusion proteins
Experimental: as §1, §2

[12] = molecular target: T5, human PD-1 expressed at the cell surface; assay: flow cytometry blocking assay on CHO/PD-1 cells: antibody first, then FITC-labeled PD-L2 fusion protein as the blocked ligand, MFI
Experimental: as §4

T6 sequence (B0LAJ3 entry or part of it limits assumed): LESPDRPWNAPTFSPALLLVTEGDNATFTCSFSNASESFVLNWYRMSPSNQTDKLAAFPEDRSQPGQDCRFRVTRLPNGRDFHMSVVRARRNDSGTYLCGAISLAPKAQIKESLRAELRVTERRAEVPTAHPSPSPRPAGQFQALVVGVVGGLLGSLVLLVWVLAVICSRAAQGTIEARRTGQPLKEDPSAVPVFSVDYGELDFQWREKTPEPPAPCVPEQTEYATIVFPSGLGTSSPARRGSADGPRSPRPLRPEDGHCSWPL
T3 sequence (Q15116 25-170): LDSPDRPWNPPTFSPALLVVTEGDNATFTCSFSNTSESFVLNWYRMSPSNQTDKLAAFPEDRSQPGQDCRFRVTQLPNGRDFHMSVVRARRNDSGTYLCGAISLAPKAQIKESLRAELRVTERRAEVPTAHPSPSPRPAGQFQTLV
T5 sequence (Q15116 25-288): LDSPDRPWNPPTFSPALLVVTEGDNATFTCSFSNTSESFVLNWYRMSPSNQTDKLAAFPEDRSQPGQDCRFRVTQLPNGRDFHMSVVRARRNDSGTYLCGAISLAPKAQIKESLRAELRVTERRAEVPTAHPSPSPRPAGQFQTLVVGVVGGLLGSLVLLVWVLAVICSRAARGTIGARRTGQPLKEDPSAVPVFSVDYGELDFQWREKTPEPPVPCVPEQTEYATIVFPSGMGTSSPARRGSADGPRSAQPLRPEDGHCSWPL
T4 sequence (P10747 19-152): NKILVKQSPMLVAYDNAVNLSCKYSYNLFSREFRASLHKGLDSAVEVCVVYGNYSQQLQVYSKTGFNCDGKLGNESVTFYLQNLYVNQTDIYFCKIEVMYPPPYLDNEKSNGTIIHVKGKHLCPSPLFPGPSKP

Row | Kd [1] | koff [1] | kon [1] | binding result [2] | binding result [3] | binding result [4] | EC50 (read off the curve) [5] | EC50 (read off the curve) [6] | EC50 (read off the curve) [7] | IC50 (read off the curve) [8] | binding result [9] | binding result [10] | binding result [11] | IC50 (read off the curve) [12] | Binder
1 | 0.16 nM | 4.5e-05 s⁻¹ | 256000 M⁻¹ s⁻¹ | no binding (tested: 20 µg/ml) | no binding (tested: 20 µg/ml) | no binding (tested: 20 µg/ml) | ~2 nM | ~3 nM | ~10 nM | – | – | – | – | – | anti-PD-1 human monoclonal antibody 17D8 (antibody, V domains shown, Fully human IgG with kappa light chain from a hybridoma (HuMab/KM mice)) VH: QVQLVESGGDVVQPGGSLRLSCAASGVAFSNYGMHWVRQAPGKGLEWVAVIWYDGSNKYYADSVKGRFTISRDNSKNMLYLQMNSLRAEDTAMYYCARNDDYWGQGTLVTVSS VL: EIVLTQSPATLSLSPGERATLSCRASQSVSSYLAWYQQKPGQAPRLIIYDASNRATGIPARFSGSGSGTDFTLTISSLEPEDFAVYYCQQRSNWPLTFGGGTKVEIK
2 | – | – | – | no binding (tested: 20 µg/ml) | no binding (tested: 20 µg/ml) | no binding (tested: 20 µg/ml) | ~0.6 nM | ~0.9 nM | ~3 nM | ~2 nM | – | – | – | – | anti-PD-1 human monoclonal antibody 4H1 (antibody, V domains shown, Fully human IgG with kappa light chain from a hybridoma) VH: QVYLVESGGGVVQPGRSLRLSCAASGFTFSNYGMHWVRQAPGKGLEWVALIWYDGSNKYYADSVKGRFTISRDNSKNTLYLQMTSLRVEDTAVYYCASNVDHWGQGTLVTVSS VL: EIVLTQSPATLSLSPGERATLSCRASQSVSSYLAWYQQKPGQAPRLLIYDASNRATGIPARFSGSGSGTDFTLTISSLEPEDFAVYYCQQSSNWPRTFGQGTKVEIK
3 | – | – | – | – | no binding (tested: 20 µg/ml) | no binding (tested: 20 µg/ml) | – | ~1 nM | – | – | – | – | – | – | anti-PD-1 human monoclonal antibody 5C4 (antibody, V domains shown, Fully human IgG with kappa light chain from a hybridoma; also called 5C4-IgG1; 5C4-IgG4) VH: QVQLVESGGGVVQPGRSLRLDCKASGITFSNSGMHWVRQAPGKGLEWVAVIWYDGSKRYYADSVKGRFTISRDNSKNTLFLQMNSLRAEDTAVYYCATNDDYWGQGTLVTVSS VL: EIVLTQSPATLSLSPGERATLSCRASQSVSSYLAWYQQKPGQAPRLLIYDASNRATGIPARFSGSGSGTDFTLTISSLEPEDFAVYYCQQSSNWPRTFGQGTKVEIK
4 | 1.2 nM | 0.000452 s⁻¹ | 377000 M⁻¹ s⁻¹ | no binding (tested: 20 µg/ml) | no binding (tested: 20 µg/ml) | no binding (tested: 20 µg/ml) | ~0.7 nM | ~1 nM | – | – | – | – | – | – | anti-PD-1 human monoclonal antibody 2D3 (antibody, V domains shown, Fully human IgG with kappa light chain from a hybridoma) VH: QVQLVESGGDVVQPGRSLRLSCAASGLTFTNYGFHWVRQAPGKGLEWVAVIWYDGSKKYYADSVKGRFTISRDNSKNTLYLQMNNLRAEDTAVYYCATGDDYWGQGTLVTVSS VL: EIVLTQSPATLSLSPGERATLSCRASQSVSSYLAWYQQKPGQAPRLLIYDTSNRATGIPARFSGSGSGTDFTLTISSLEPEDFAVYYCQQRSNWPLTFGGGTKVEIK
5 | – | – | – | – | – | – | – | – | – | – | no binding (tested: 20 µg/ml) | no binding (tested: 20 µg/ml) | no binding (tested: 20 µg/ml) | – | anti-PD-1 human monoclonal antibody 7D3 (antibody, V domains shown, Fully human IgG with kappa light chain from a hybridoma) VH: QVQLVESGGGVVQPGRSLRLSCTTSGITFSSYGFHWVRQAPGKGLEWVAVIWYDGSKKYYADSVKGRFTLSRDDSKNTLYLQMNSLRAEDTAVYYCVTGDDYWGQGTLVTVSS VL: EIVLTQSPATLSLSPGERATLSCRASQSVSSYLAWYQQKPGQAPRLLIYDASNRATGIPARFSGSGSGTDFTLTISSLEPEDFAVYYCQQRSNWPLTFGGGTKVEIK
6 | 0.13 nM | 9.9e-06 s⁻¹ | 76000 M⁻¹ s⁻¹ | no binding (tested: 20 µg/ml) | no binding (tested: 20 µg/ml) | no binding (tested: 20 µg/ml) | – | – | ~10 nM | – | – | – | – | ~8 nM | anti-PD-1 human monoclonal antibody 4A11 (antibody, V domains shown, Fully human IgG with kappa light chain from a hybridoma) VH: QLQLQESGPGLVKPSETLSLTCTVSGGSLSRSSFFWGWIRQPPGKGLEWIGSIYYSGSTYYNPSLKSRVTISVDTSKNQFSLKLSSVTAADTAVYYCVRDYDILTGDEDYWGQGTLVTVSS VL: DIQMTQSPSSLSASVGDRVSITCRASQGISSWLAWYQQKPEKAPKSLIYAASNLRSGVPSRFSGSGSGTDFTLTISSLQPEDFATYYCQQYYSYPRTFGQGTKVEIK
7 | – | – | – | – | – | – | – | – | – | – | no binding (tested: 20 µg/ml) | no binding (tested: 20 µg/ml) | no binding (tested: 20 µg/ml) | – | anti-PD-1 human monoclonal antibody 5F4 (antibody, V domains shown, Fully human IgG with kappa light chain from a hybridoma) VH: QLQLQESGPGLVKPSETLSLTCSVSGGSLSRSSYFWGWIRQPPGKGLEWIASIFYSGETYFNPSLKSRVTISVDTSRNQFSLKLSSVTAADTAVYYCARDYDILTGDEDYWGQGTLVTVSS VL: DIQMTQSPSSLSASVGDRVTITCRASQGISSWLAWYQQKPEKAPKSLIYAASSLQSGVPSRFSGSGSGTDFTLTISSLQPEDFATYYCQQYYSYPRTFGQGTKVEIK
